Molecular target: T1, 血清标本中的HE4抗原 (human, UniProt Q14508 31-124, limits assumed)
T1 construct: Serum HE4 detected in the sandwich assay; kept apart from the recombinant antigen; also called 血清中HE4; 质控血清HE4
T1 sequence (looked up): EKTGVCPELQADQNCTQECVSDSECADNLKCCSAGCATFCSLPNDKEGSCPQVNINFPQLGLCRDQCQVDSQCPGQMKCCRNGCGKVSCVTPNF
Experiment: double-antibody sandwich chemiluminescent ELISA, capture antibody

binding result: binds
B1: FC融合纳米抗体3C8 (Fc fusion)
chain: QLQESGGGLVQAGGSVRLSCAASGRTFRRYHMGWFRQTPGKEREFVAAISWSGGTTYYAESVKGRFTISRDNAKNTIYLQMNSLKPEDTAVYYCAPTYGNYWHPSGYWGQGTQVTVSS
notes: Capture antibody of the double-antibody sandwich assay; also called 3C8 (捕获一抗); 捕获抗体3C8; not shown: Fc part and any linker

From CN113045663A (SHENZHEN INNOVA NANOBODI CO LTD, dated 2021)
